According to IntAct's records for PubMed 19264842:

B1: 1-phosphatidylinositol 4,5-bisphosphate phosphodiesterase gamma-1 (Homo sapiens), P19174 (parent)
chain: MAGAASPCANGCGPGAPSDAEVLHLCRSLEVGTVMTLFYSKKSQRPERKTFQVKLETRQITWSRGADKIEGAIDIREIKEIRPGKTSRDFDRYQEDPAFRPDQSHCFVILYGMEFRLKTLSLQATSEDEVNMWIKGLTWLMEDTLQAPTPLQIERWLRKQFYSVDRNREDRISAKDLKNMLSQVNYRVPNMRFLRERLTDLEQRSGDITYGQFAQLYRSLMYSAQKTMDLPFLEASTLRAGERPELCRVSLPEFQQFLLDYQGELWAVDRLQVQEFMLSFLRDPLREIEEPYFFLDEFVTFLFSKENSVWNSQLDAVCPDTMNNPLSHYWISSSHNTYLTGDQFSSESSLEAYARCLRMGCRCIELDCWDGPDGMPVIYHGHTLTTKIKFSDVLHTIKEHAFVASEYPVILSIEDHCSIAQQRNMAQYFKKVLGDTLLTKPVEISADGLPSPNQLKRKILIKHKKLAEGSAYEEVPTSMMYSENDISNSIKNGILYLEDPVNHEWYPHYFVLTSSKIYYSEETSSDQGNEDEEEPKEVSSSTELHSNEKWFHGKLGAGRDGRHIAERLLTEYCIETGAPDGSFLVRESETFVGDYTLSFWRNGKVQHCRIHSRQDAGTPKFFLTDNLVFDSLYDLITHYQQVPLRCNEFEMRLSEPVPQTNAHESKEWYHASLTRAQAEHMLMRVPRDGAFLVRKRNEPNSYAISFRAEGKIKHCRVQQEGQTVMLGNSEFDSLVDLISYYEKHPLYRKMKLRYPINEEALEKIGTAEPDYGALYEGRNPGFYVEANPMPTFKCAVKALFDYKAQREDELTFIKSAIIQNVEKQEGGWWRGDYGGKKQLWFPSNYVEEMVNPVALEPEREHLDENSPLGDLLRGVLDVPACQIAIRPEGKNNRLFVFSISMASVAHWSLDVAADSQEELQDWVKKIREVAQTADARLTEGKIMERRKKIALELSELVVYCRPVPFDEEKIGTERACYRDMSSFPETKAEKYVNKAKGKKFLQYNRLQLSRIYPKGQRLDSSNYDPLPMWICGSQLVALNFQTPDKPMQMNQALFMTGRHCGYVLQPSTMRDEAFDPFDKSSLRGLEPCAISIEVLGARHLPKNGRGIVCPFVEIEVAGAEYDSTKQKTEFVVDNGLNPVWPAKPFHFQISNPEFAFLRFVVYEEDMFSDQNFLAQATFPVKGLKTGYRAVPLKNNYSEDLELASLLIKIDIFPAKENGDLSPFSGTSLRERGSDASGQLFHGRAREGSFESRYQQPFEDFRISQEHLADHFDSRERRAPRRTRVNGDNRL

Variants of: B1
Conditions: with rac1_human RAC1, P63000

Variant	effect of a mutation on the interaction
P842L	disrupting interaction
